Assay results as given in patent publication US20210122824A1.

Tests used:
Assay in all cases: flow cytometry, HEK293F cells transiently expressing the target, 100 nM antibody, PE anti-human Fc; Mean (PE-A against FITC-A, GFP surrogate)
[1] = molecular target: human PD1 expressed on HEK293F cells (human) (UniProt Q15116)
[2] = molecular target: human PD-L1 expressed on cell surface (human) (UniProt Q9NZQ7)
[3] = molecular target: human LAG3 expressed on HEK293F cells (human) (UniProt P18627)
[4] = molecular target: rhesus PD-L1 expressed on HEK293F cells (rhesus) (UniProt F6VEW6)
[5] = molecular target: mouse PD-L1 expressed on HEK293F cells (mouse) (UniProt Q9EP73)
[6] = molecular target: human TIM3 expressed on HEK293F cells (human) (UniProt Q8TDQ0)
[7] = molecular target: human B7-H3 expressed on HEK293F cells (human) (UniProt Q5ZPR3)
[8] = molecular target: human CTLA4 expressed on HEK293F cells (human) (UniProt P16410)
human CTLA4 expressed on HEK293F cells (human), sequence (P16410 36-223): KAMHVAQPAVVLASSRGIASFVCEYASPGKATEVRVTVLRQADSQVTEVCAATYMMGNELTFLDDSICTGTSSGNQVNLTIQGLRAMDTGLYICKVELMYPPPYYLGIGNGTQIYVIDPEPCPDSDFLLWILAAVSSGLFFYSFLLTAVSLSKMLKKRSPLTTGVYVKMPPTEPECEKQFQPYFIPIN

human PD-L1 expressed on cell surface (human), sequence (Q9NZQ7 19-290): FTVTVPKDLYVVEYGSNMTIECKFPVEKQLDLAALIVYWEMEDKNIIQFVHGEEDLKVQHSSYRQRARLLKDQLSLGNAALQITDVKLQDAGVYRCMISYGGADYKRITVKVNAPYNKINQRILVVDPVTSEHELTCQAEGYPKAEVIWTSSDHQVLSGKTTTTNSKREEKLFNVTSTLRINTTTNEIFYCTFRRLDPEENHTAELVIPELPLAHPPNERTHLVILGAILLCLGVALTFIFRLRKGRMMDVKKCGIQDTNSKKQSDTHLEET
human LAG3 expressed on HEK293F cells (human), sequence (P18627 23-525): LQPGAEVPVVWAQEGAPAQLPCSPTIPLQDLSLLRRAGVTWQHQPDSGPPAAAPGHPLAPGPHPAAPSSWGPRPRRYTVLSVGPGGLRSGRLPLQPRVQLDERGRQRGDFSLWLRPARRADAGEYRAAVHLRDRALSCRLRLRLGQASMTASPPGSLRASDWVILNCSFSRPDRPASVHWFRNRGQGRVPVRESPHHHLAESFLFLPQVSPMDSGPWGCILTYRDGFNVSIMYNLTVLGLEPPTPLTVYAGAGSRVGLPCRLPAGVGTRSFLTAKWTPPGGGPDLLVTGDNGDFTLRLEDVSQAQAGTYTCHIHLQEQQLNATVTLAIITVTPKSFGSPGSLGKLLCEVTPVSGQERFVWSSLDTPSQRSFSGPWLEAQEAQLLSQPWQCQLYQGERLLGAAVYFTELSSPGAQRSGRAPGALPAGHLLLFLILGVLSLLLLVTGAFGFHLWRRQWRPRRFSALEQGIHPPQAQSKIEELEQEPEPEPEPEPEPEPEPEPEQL
human B7-H3 expressed on HEK293F cells (human), sequence (Q5ZPR3 29-534): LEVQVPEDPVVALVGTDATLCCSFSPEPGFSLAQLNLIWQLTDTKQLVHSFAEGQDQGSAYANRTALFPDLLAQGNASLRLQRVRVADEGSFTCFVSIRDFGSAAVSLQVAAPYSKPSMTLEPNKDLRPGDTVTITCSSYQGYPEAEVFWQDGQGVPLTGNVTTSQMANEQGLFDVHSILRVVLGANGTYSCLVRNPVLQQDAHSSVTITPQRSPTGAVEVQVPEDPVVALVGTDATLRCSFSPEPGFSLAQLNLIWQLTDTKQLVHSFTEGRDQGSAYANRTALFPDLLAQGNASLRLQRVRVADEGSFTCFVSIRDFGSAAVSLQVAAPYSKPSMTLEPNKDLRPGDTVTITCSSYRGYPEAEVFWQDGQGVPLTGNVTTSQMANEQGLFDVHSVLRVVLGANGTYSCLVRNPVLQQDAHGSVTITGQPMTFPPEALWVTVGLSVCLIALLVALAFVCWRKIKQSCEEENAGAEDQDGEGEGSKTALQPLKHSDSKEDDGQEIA
human PD1 expressed on HEK293F cells (human), sequence (Q15116 25-288): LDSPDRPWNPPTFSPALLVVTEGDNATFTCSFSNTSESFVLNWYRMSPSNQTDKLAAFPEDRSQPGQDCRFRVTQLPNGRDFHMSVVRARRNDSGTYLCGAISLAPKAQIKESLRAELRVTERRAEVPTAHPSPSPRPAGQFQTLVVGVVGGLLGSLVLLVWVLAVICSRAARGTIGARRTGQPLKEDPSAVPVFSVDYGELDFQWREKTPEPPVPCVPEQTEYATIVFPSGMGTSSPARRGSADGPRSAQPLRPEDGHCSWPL
mouse PD-L1 expressed on HEK293F cells (mouse), sequence (Q9EP73 19-290): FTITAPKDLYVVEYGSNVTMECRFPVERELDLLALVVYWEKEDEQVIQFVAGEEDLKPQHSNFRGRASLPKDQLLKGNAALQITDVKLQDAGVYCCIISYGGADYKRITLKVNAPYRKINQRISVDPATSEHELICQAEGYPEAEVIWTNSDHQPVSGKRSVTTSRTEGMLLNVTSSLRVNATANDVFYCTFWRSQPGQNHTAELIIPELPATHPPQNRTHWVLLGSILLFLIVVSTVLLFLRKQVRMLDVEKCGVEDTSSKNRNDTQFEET

Mean [1]: 3050
Mean [2]: 2470
Mean [3]: 2440
Mean [4]: 2520
Mean [5]: 3030
Mean [6]: 2280
Mean [7]: 2690
Mean [8]: 2480
Substance: Isotype control (antibody)
